B1: Protein RCR1 (Saccharomyces cerevisiae), P38212 (parent)
chain: MGLISYENEAINEVKKADNHHVSKFVTSYYGPSSSSWQSGIWILFVLFVAAVILIILFTFVANRRRRRMGRAPIRGTAWLTPPSYRQSQQQYTGTVQQRTDDYVPEYTETANEHDLGYYDQRGEFHPNDKAAYVAPPPLVQECSSESVNSLERPPAAVVHQANSLDTDYGLTRPSNGRVPAVSDTVEQLERLPGGTTTQEINPPERAKVNARS
partner: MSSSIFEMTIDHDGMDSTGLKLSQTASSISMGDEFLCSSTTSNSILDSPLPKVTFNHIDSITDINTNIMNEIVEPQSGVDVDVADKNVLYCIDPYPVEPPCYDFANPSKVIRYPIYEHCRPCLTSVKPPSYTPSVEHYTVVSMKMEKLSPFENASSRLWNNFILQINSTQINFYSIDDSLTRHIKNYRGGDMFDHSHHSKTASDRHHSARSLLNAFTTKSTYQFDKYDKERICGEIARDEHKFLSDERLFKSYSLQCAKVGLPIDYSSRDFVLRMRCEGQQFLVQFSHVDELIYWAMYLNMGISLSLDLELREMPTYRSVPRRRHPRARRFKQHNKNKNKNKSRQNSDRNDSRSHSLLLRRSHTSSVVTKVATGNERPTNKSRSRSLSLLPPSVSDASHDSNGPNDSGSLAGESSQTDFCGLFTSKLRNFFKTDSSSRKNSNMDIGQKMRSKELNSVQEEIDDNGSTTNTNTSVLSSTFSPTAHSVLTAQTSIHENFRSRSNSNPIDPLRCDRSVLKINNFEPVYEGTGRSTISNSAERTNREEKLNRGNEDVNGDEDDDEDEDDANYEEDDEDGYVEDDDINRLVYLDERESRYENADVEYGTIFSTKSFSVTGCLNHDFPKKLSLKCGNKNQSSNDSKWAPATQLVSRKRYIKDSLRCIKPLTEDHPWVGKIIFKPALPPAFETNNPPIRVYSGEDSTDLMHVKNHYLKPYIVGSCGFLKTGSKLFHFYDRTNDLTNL
B2: Protein RCR1 (Saccharomyces cerevisiae), P38212 (parent)
chain: B1 chain

Variants of: B1
Conditions: with yno4_yeast yno4, P53907

| Variant | effect of a mutation on the interaction |
| --- | --- |
| MGLISYENEAINEVKKADNHHVSKFVTSYYGPSSSSWQSGIWILFVLFVAAVILIILFTFVANRRRRRMGRAPIRGTAWLTQASYRQSQQQYTGTVQQRTDDYVPEYTETANEHDLGYYDQRGEFHPNDKAAYVAPPPLVQECSSESVNSLERPPAAVVHQANSLDTDYGLTRPSNGRVPAVSDTVEQLERLPGGTTTQEINPPERAKVNARS [P82Q;P83A] | disrupting interaction |

Variants of: B2
Conditions: with rsp5_yeast RSP5, P39940
Sequence of rsp5_yeast RSP5, P39940 (P39940 whole entry): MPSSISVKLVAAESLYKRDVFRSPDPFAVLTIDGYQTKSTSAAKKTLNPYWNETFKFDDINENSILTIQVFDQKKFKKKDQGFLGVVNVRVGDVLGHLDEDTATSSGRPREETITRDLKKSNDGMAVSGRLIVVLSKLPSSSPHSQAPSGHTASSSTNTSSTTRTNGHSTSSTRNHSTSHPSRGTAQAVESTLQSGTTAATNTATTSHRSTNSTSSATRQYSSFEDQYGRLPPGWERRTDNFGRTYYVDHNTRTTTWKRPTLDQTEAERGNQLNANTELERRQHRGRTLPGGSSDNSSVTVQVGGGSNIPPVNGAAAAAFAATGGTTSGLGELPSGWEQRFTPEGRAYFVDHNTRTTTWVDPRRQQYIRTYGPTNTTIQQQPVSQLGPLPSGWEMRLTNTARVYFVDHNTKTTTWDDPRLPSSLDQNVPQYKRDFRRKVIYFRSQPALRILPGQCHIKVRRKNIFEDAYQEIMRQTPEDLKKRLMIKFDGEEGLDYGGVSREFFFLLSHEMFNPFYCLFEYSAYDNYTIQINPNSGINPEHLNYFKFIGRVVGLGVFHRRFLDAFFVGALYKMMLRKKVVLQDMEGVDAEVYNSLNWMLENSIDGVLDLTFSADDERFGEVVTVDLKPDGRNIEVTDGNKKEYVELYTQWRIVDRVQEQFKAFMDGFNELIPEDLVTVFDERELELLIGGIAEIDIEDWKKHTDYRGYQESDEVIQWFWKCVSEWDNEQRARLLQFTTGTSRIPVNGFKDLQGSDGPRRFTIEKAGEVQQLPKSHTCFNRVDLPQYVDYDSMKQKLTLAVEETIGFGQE

| Variant | effect of a mutation on the interaction |
| --- | --- |
| MGLISYENEAINEVKKADNHHVSKFVTSYYGPSSSSWQSGIWILFVLFVAAVILIILFTFVANRRRRRMGRAPIRGTAWLTQASYRQSQQQYTGTVQQRTDDYVPEYTETANEHDLGYYDQRGEFHPNDKAAYVAPPPLVQECSSESVNSLERPPAAVVHQANSLDTDYGLTRPSNGRVPAVSDTVEQLERLPGGTTTQEINPPERAKVNARS [P82Q;P83A] | decreasing interaction |
| MGLISYENEAINEVKKADNHHVSKFVTSYYGPSSSSWQSGIWILFVLFVAAVILIILFTFVANRRRRRMGRAPIRGTAWLTPPSYRQSQQQYTGTVQQRTDDYVAEYTETANEHDLGYYDQRGEFHPNDKAAYVAPPPLVQECSSESVNSLERPPAAVVHQANSLDTDYGLTRPSNGRVPAVSDTVEQLERLPGGTTTQEINPPERAKVNARS [P105A] | disrupting interaction |

Variants of: B2
Conditions: with rsp5_yeast RSP5, P39940
Remark: another data set of the same source

| Variant | effect of a mutation on the interaction |
| --- | --- |
| MGLISYENEAINEVKKADNHHVSKFVTSYYGPSSSSWQSGIWILFVLFVAAVILIILFTFVANRRRRRMGRAPIRGTAWLTQASYRQSQQQYTGTVQQRTDDYVAEYTETANEHDLGYYDQRGEFHPNDKAAYVAPPPLVQECSSESVNSLERPPAAVVHQANSLDTDYGLTRPSNGRVPAVSDTVEQLERLPGGTTTQEINPPERAKVNARS [P82Q;P83A;P105A] | disrupting interaction |
| MGLISYENEAINEVKKADNHHVSKFVTSYYGPSSSSWQSGIWILFVLFVAAVILIILFTFVANRRRRRMGRAPIRGTAWLTPPSYRQSQQQYTGTVQQRTDDYVAEYTETANEHDLGYYDQRGEFHPNDKAAYVAPPPLVQECSSESVNSLERPPAAVVHQANSLDTDYGLTRPSNGRVPAVSDTVEQLERLPGGTTTQEINPPERAKVNARS [P105A] | decreasing interaction |

— IntAct's records for PubMed 17213653
